Source: the supplement of paper PMC10567573

B1: INTS3 (parent)
chain: AQLQALRQKEVDFCISLLRERFME
B2: TRAF3IP2 (parent)
chain: YGHDYPRAAYQQVIQPALPGQPLP

Variants of: B1
Assay: protein stability index of a GFP-peptide fusion (GPS, HEK-293T) (PSI 1-6); higher = more stable
Conditions: c terminus: a fixed tail appended
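Also: lentivirally expressed fusions sorted by FACS into six bins by GFP to DsRed ratio, PSI derived from sequencing read proportions per bin multiplied by bin number.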

Row | Variant | protein stability index
1 | E20I | 3.04
2 | E20M | 2.92
3 | E20S | 5.14
4 | E20P | 2.08
5 | E20C | 2.38
6 | F22R | 2.1
7 | F22Q | 1.98
8 | F22Y | 2.21
9 | F22A | 1.45
10 | F22C | 1.19
11 | F22S | 1.31
12 | F22W | 3.21
13 | F22N | 1.69
14 | F22M | 3.62
15 | F22E | 2.16
16 | F22T | 1.97
17 | L6V | 2.98
18 | L6K | 2.31
19 | L6D | 1.96
20 | L6H | 2.11
21 | L6A | 2.13
22 | L6S | 2.14
23 | L6I | 1.93
24 | L6M | 2.44

Row | Variant | protein stability index
25 | L6G | 1.98
26 | L6F | 2.59
27 | L6T | 1.86
28 | Q8E | 1.91
29 | Q8Y | 4.01
30 | Q8I | 3.36
31 | Q8K | 1.65
32 | Q8S | 3.06
33 | Q8R | 1.91
34 | Q8V | 3.32
35 | Q8N | 2.37
36 | L17E | 2.06
37 | L17G | 2.3
38 | L17N | 2.1
39 | L17D | 2.56
40 | L17Y | 2.51
41 | L17F | 1.9
42 | L17A | 2.03
43 | D12V | 4.29
44 | D12F | 1.05
45 | D12S | 3.29
46 | D12K | 1.98
47 | D12L | 2.47
48 | D12E | 2.45

Row | Variant | protein stability index
49 | D12Q | 2.12
50 | D12N | 1.59
51 | D12G | 2.1
52 | R21C | 2.58
53 | R21K | 2.5
54 | R21W | 2.68
55 | R21T | 3.99
56 | R21F | 1.36
57 | R21E | 2.1
58 | R21M | 2.09
59 | R21A | 2.41
60 | A5C | 3.02
61 | A5M | 1.51
62 | A5I | 2.07
63 | A5E | 2.24
64 | A5Y | 2.68
65 | A5S | 2.33
66 | S16F | 4.27
67 | S16L | 1.85
68 | S16D | 2.09
69 | S16N | 3.32
70 | S16C | 3.15
71 | S16V | 1.11
72 | S16G | 3.67

Row | Variant | protein stability index
73 | S16K | 1.65
74 | M23H | 1.96
75 | M23T | 1.85
76 | M23E | 1.46
77 | M23I | 2.46
78 | M23D | 1.95
79 | M23G | 1.9
80 | M23Q | 1.03
81 | M23L | 2.29
82 | M23R | 2.91
83 | V11H | 3.66
84 | V11L | 4.26
85 | V11Y | 2.73
86 | V11S | 1.67
87 | V11W | 2.14
88 | V11R | 1.99
89 | V11N | 2.25
90 | V11T | 1.81
91 | V11F | 2.1
92 | V11G | 1.72
93 | K9G | 2.51
94 | K9Y | 3.51
95 | K9S | 2.29
96 | K9I | 3.07

Row | Variant | protein stability index
97 | K9T | 2.45
98 | K9D | 1.9
99 | K9Q | 3.5
100 | K9N | 1.93
101 | K9H | 3.64
102 | K9P | 2.91
103 | I15Y | 2.3
104 | I15G | 2.6
105 | I15S | 1.67
106 | I15P | 2.07
107 | I15E | 2.34
108 | I15A | 1.62
109 | I15R | 1.71
110 | I15K | 2.17
111 | I15Q | 1.77
112 | I15N | 2.46
113 | I15L | 2.84
114 | I15W | 2.07
115 | I15T | 2.07
116 | E10W | 1.53
117 | E10A | 2.86
118 | E10M | 2.87
119 | E10D | 1.04
120 | E10G | 2.1

Row | Variant | protein stability index
121 | E10S | 3.14
122 | E10P | 2.72
123 | E10Y | 1.49
124 | E10I | 2.25
125 | E10L | 3.79
126 | E10F | 2.15
127 | E10K | 2.2
128 | R19N | 3.64
129 | R19F | 1.87
130 | R19L | 2.02
131 | R19M | 2.43
132 | R19G | 1.37
133 | R19K | 1.2
134 | R19P | 2.21
135 | R19Q | 2.74
136 | R19Y | 2.94
137 | L18A | 1.7
138 | L18G | 3.07
139 | L18C | 1.02
140 | L18P | 2.04
141 | L18Q | 3.04
142 | L18N | 1.97
143 | L18R | 2.2
144 | L3W | 2.71

Row | Variant | protein stability index
145 | L3D | 1.81
146 | L3R | 1.19
147 | L3G | 2.11
148 | L3N | 1.55
149 | L3C | 1.76
150 | L3E | 2.21
151 | A1P | 3.68
152 | A1T | 3.13
153 | A1H | 3.79
154 | A1L | 1.61
155 | A1C | 3.01
156 | A1D | 2.11
157 | A1G | 2.93
158 | R7K | 2.71
159 | R7G | 4.64
160 | R7L | 2.24
161 | R7W | 2.6
162 | R7F | 2.46
163 | R7D | 1.65
164 | R7H | 2.84
165 | R7P | 2.23
166 | R7N | 2.35
167 | R7Q | 2.73
168 | E24Q | 1.4

Row | Variant | protein stability index
169 | E24V | 2.95
170 | E24A | 3.89
171 | E24Y | 2.66
172 | E24T | 1.77
173 | Q4D | 2.04
174 | Q4W | 3.64
175 | Q4L | 2.45
176 | Q4C | 1.93
177 | Q4S | 1.55
178 | Q4F | 1.83
179 | Q4I | 3.2
180 | Q4E | 2.81
181 | Q4T | 3.02
182 | Q4R | 2.3
183 | F13S | 2.19
184 | F13L | 1.64
185 | F13R | 1.27
186 | F13M | 2.52
187 | F13T | 2.44
188 | F13G | 2
189 | F13H | 1.95
190 | F13W | 3.65
191 | F13I | 2.49
192 | F13P | 2.3

Row | Variant | protein stability index
193 | F13V | 2.7
194 | C14Y | 2.16
195 | C14D | 2.03
196 | C14Q | 1.84
197 | C14E | 1.75
198 | C14N | 1.52
199 | C14T | 1.68
200 | C14R | 2.16
201 | Q2R | 4.11
202 | Q2M | 3.7
203 | Q2G | 3.4
204 | Q2E | 1.48
205 | Q2D | 3.29
206 | Q2I | 1.67
207 | Q2Y | 3.15
208 | Q2W | 2.42

Variants of: B2
Assay: as above
Conditions: c terminus: a fixed tail appended

Row | Variant | protein stability index
209 | L18Q | 2.24
210 | L18S | 1.6
211 | L18N | 2.25
212 | R7C | 2.44
213 | R7N | 2.82
214 | R7Y | 2.28
215 | R7F | 2.2
216 | R7E | 3.87
217 | R7A | 2.46
218 | H3D | 2.02
219 | H3S | 2.2
220 | H3F | 2.08
221 | H3V | 2.4
222 | H3Q | 2.04
223 | H3I | 1.83
224 | H3M | 1.77
225 | H3G | 4.19
226 | Y1E | 4.63
227 | Y1G | 3.63
228 | Y1V | 4.01
229 | Y1T | 3.54
230 | Y1M | 3.31
231 | Y5A | 4.22
232 | Y5F | 2.52
233 | Y5W | 3.66
234 | Y5E | 3.88

Row | Variant | protein stability index
235 | Y5D | 4.01
236 | Y5M | 3.27
237 | D4M | 1.66
238 | D4A | 1.55
239 | D4L | 1.73
240 | D4S | 2.07
241 | D4C | 1.8
242 | Q15P | 2.45
243 | Q15A | 1.74
244 | Q15I | 2.14
245 | Q15S | 2.01
246 | Q12N | 1.65
247 | Q12C | 3.07
248 | Q12H | 2.01
249 | Q12P | 3.46
250 | Q12R | 2.17
251 | Q12I | 2.59
252 | Q12Y | 2.61
253 | P22S | 1.8
254 | P22I | 1.82
255 | P22E | 1.71
256 | P22F | 2.56
257 | I14W | 2.33
258 | I14N | 1.92
259 | I14T | 1.86
260 | I14D | 1.22

Row | Variant | protein stability index
261 | I14V | 1.67
262 | I14Q | 1.75
263 | I14Y | 2.52
264 | A8W | 2.64
265 | A8P | 2.35
266 | A8V | 2.59
267 | Q11K | 2.24
268 | Q11S | 2.15
269 | Q11C | 3.05
270 | Q11N | 1.96
271 | Q11L | 3.77
272 | Q11I | 2.94
273 | G2T | 2.27
274 | G2V | 1.83
275 | G2I | 1.97
276 | P24C | 2
277 | P24Y | 1.6
278 | P24N | 2.14
279 | P24F | 1.9
280 | P24S | 1.43
281 | P24M | 2.07
282 | P24V | 2.09
283 | P24K | 2.47
284 | P16R | 1.71
285 | P16V | 3.03
286 | P16Y | 2.81

Row | Variant | protein stability index
287 | P16T | 2.27
288 | Q21F | 1.65
289 | Q21R | 2.24
290 | Q21V | 2.44
291 | Y10E | 2.17
292 | Y10M | 1.65
293 | Y10I | 2.02
294 | Y10D | 1.97
295 | Y10G | 1.91
296 | Y10V | 2.13
297 | Y10T | 1.97
298 | P19I | 2.54
299 | P19V | 2.35
300 | P19D | 1.98
301 | P19F | 2.44
302 | P19A | 1.99
303 | P19Q | 1.54
304 | P19W | 1.73
305 | L23S | 2.02
306 | L23C | 2.21
307 | G20K | 2.23
308 | G20H | 2.33
309 | G20S | 1.6
310 | G20F | 1.8
311 | G20E | 2.52
312 | G20D | 2.78

Row | Variant | protein stability index
313 | V13Q | 2.25
314 | V13F | 2.38
315 | V13E | 1.74
316 | V13M | 1.95
317 | P6T | 2.73
318 | P6F | 1.81
319 | P6I | 1.69
320 | P6C | 2.26
321 | P6G | 3.41
322 | P6L | 1.73
323 | P6Y | 2.96
324 | A9R | 2.4
325 | A9H | 1.92
326 | A9K | 2.4
327 | A9W | 1.15
328 | A9Q | 2.2
329 | A17D | 2.36
330 | A17E | 2
331 | A17C | 2.32
332 | A17G | 1.46
333 | A17R | 1.74
334 | A17H | 2.08
